Data set [1] deals with the molecule itself. The data set is described as follows: SEC-MALS. (SEC sorts molecules by how far they enter the pores of the column.)
Data set [2] concerns the molecule itself. As to the kind of experiment: SEC-MALS. The source holds these as a separate data set.

Residue numbers refer to the chain shown, from its start. In names and notes the source's numbering stands. Like-named read-outs stand apart in the source and are kept apart here.

B1: ATL3 22-442 WT (soluble domain: GTPase domain, linker and 3HB middle domain) (domain or fragment, human, UniProt Q6DD88 22-442, looked up)
chain: SKPGPVQVVLVQKDQHSFELDEKALASILLQDHIRDLDVVVVSVAGAFRKGKSFILDFMLRYLYSQKESGHSNWLGDPEEPLTGFSWRGGSDPETTGIQIWSEVFTVEKPGGKKVAVVLMDTQGAFDSQSTVKDCATIFALSTMTSSVQIYNLSQNIQEDDLQQLQLFTEYGRLAMDEIFQKPFQTLMFLVRDWSFPYEYSYGLQGGMAFLDKRLQVKEHQHEEIQNVRNHIHSCFSDVTCFLLPHPGLQVATSPDFDGKLKDIAGEFKEQLQALIPYVLNPSKLMEKEINGSKVTCRGLLEYFKAYIKIYQGEDLPHPKSMLQATAEANNLAAAASAKDIYYNNMEEVCGGEKPYLSPDILEEKHCEFKQLALDHFKKTKKMGGKDFSFRYQQELEEEIKELYENFCKHNGSKNVFSTFR
With B1, the “stoichiometry N” value in “SEC-MALS [1]” is 2.

B2: ATL3 22-442 P338R (domain or fragment, human, UniProt Q6DD88 22-442, looked up)
chain: B1 chain with P317R
Consider B2, for which the “stoichiometry N” value in the data set “SEC-MALS [2]” came to 2.

B3: ATL3 22-442 Y192C (domain or fragment, human, UniProt Q6DD88 22-442, looked up)
chain: B1 chain with Y171C
Turning to B3, in the data set “SEC-MALS [1]”, the “stoichiometry N” value was determined as 2.

As usually defined, the stoichiometry N is the number of molecules, sites or subunits per partner or assembly.
